One block for each binder: values may come before it.
How the values were obtained:
[1] = target: T1, cynomolgus monkey Protein S (cynomolgus monkey); test: BLI Octet; antibody on anti-human Fc probe; Protein S 7.81-500 nM; 4 mM CaCl2
T1 construct: also called cyno Protein S
Procedure: (§1) Binding characteristics of the Protein S antibodies were also further characterized using Octet. Using the Octet System (Sartorius), the binding of each antibody to both human and cynomolgus monkey (“cyno” in Table 10) Protein S was determined. The human Fc antibodies were immobilized onto anti-human Fc capture probes by placing the probes into 10 μg/ml antibody solution in 10 mg/ml bovine serum albumin, 20 mM Tris pH 7.0, 150 mM NaCl, and 4 mM calcium chloride. […] Next, the probes were placed into buffer and the dissociation rates were measured.

[2] = target: T2, human Protein S (human, UniProt P07225 42-676); test: as above
T2 construct: also called ProS; ProS1
T2 sequence: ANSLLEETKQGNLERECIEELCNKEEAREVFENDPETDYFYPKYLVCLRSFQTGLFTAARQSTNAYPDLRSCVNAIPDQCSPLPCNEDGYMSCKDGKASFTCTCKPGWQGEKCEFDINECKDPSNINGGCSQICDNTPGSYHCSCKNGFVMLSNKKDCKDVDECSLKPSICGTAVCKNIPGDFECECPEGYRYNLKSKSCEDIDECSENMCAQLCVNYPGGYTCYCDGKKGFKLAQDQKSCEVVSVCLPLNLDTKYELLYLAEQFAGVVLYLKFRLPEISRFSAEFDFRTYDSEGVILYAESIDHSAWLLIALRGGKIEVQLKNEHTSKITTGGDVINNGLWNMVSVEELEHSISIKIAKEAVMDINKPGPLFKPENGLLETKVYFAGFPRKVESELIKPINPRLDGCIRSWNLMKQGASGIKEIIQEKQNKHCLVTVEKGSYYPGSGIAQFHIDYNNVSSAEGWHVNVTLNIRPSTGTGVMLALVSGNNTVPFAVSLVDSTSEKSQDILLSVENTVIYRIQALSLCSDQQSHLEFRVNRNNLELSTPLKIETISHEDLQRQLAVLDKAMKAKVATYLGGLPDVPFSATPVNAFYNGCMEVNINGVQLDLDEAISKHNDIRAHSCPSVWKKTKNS
Procedure: as §1

[3] = target: T3, Protein S-C4BP complex (human, UniProt P04003 49-597; P20851 18-252); test: BLI Octet; antibody on anti-human Fc probe
T3 construct: C4BP preparation from Complement Technologies that contains Protein S precomplexed to human C4BP; also called ProS-C4BP Complex; C4BP-Protein S complex
T3 sequence 1: T2 sequence
T3 sequence 2: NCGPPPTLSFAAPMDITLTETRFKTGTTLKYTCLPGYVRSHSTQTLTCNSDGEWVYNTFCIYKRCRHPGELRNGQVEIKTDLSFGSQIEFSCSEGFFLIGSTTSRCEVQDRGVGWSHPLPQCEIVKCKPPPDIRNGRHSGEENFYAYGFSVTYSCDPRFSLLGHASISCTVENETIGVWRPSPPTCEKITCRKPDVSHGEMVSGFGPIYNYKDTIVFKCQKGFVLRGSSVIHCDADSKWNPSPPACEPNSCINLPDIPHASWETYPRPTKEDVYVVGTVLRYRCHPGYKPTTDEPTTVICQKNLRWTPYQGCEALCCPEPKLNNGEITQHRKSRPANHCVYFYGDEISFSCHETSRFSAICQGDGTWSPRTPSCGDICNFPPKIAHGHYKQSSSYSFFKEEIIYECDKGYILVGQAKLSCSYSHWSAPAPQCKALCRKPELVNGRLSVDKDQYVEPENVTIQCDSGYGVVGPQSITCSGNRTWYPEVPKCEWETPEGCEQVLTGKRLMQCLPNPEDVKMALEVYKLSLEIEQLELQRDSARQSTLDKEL
T3 sequence 3: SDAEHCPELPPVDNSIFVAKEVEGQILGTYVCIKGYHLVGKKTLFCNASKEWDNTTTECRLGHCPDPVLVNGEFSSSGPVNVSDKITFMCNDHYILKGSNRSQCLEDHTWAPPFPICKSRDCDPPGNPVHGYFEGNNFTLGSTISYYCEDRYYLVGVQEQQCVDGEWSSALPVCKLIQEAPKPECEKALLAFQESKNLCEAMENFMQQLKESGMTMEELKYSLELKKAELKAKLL
Procedure: The Octet assay was used to determine the capability of the Protein S antibodies provided herein to bind to Protein S either alone, or when complexed to C4BP.
Using the Octet System (Sartorius), the binding of each antibody to both Protein S and Protein S in complex with C4BP was determined. It had previously been determined that the C4BP preparation from Complement Technologies contains Protein S precomplexed to human C4BP. Therefore, this preparation represented the Protein S-C4BP complex and plasma purified Protein S from Haematologic Technologies was used as the source of free Protein S. The human Fc antibodies were immobilized onto anti-human Fc capture probes by placing the probes into 10 μg/ml antibody solution in 10 mg/ml bovine serum albumin, 20 mM Tris pH 7.0, 150 mM NaCl, and 4 mM calcium chloride. Then the bound antibodies were placed into solutions containing either 75 μg/ml Protein S or 100 μg/ml C4BP (C4BP-Protein S complex).

[4] = target: T2, human Protein S; test: SPR Biacore X100; antibody captured by anti-human IgG (Fc); Protein S 2-128 nM; 5 mM CaCl2; 1:1 fit
Procedure: Binding characteristics of the Protein S antibodies were also determined. Binding interaction analysis was obtained by Surface Plasmon Resonance in a Biacore X100 instrument. The human anti-IgG (Fc) antibody was immobilized to the carboxymethylated dextran membrane on the sensor chip surface (CM5) via the free amine method for a contact time of 420 seconds. Human anti-IgG antibody at 25 μg/mL in 0.15 M NaCl was immobilized to 9,785 RU in 10 mM sodium acetate pH 5.0.
Dilution and running buffer were as follows: Hbs−EP+5 mM CaCl₂. Regeneration was obtained by 3 M MgCl₂. Binding constants (ka, kd, and KD) were determined using the Biacore X100 evaluation software, assuming a 1:1 interaction of Protein S and the tested monoclonal antibody under investigation.

Kd [1]: < 0.001 nM
koff [1]: < 1e-07 s⁻¹
kon [1]: 124000 M⁻¹ s⁻¹
Kd [2]: < 0.001 nM
koff [2]: < 1e-07 s⁻¹
kon [2]: 143000 M⁻¹ s⁻¹
B1: Antibody 25 (antibody, V domains shown)
VH: QVQLQESGPGLVKPSETLSLTCTVSGGSISGNYWSWIRQPPGKGLEWIGYIYYSGSTNYNPSLKSRVTISVDTSKNQFSLKLSSVTAADTAVYYCARDLDYFTWGAYSDWYFDLWGRGTLVTVSS
VL: DIQMTQSPSSLSASVGDRVTITCRASQSISTFLNWYQQKPGKAPKLLIYATSSLRSGVPSRFSGSGSGTDFTLTISSLQPEDFAIYYCQQSYSTPRTFGQGTQVEIK
notes: Same variable regions as Antibody 31
binding result [3]: no binding (tested: 100 µg/ml C4BP (C4BP-Protein S complex))

Kd [4]: 9.6 nM
koff [4]: 0.00113 s⁻¹
kon [4]: 116000 M⁻¹ s⁻¹
Kd [1]: < 0.001 nM
koff [1]: < 1e-07 s⁻¹
kon [1]: 82100 M⁻¹ s⁻¹
Kd [2]: 0.399 nM
koff [2]: 3.4e-05 s⁻¹
kon [2]: 85200 M⁻¹ s⁻¹
B2: Antibody 11 (antibody, V domains shown)
VH: QVQLVQSGAEVKKPGASVKVSCKSSGHTFTGYYMHWVRQAPGQGLEWMGWINPNSGDTNYAQKFQGRVTMTRDTSISTAYMEMSRLRSDDTAVYYCARDSQILWFGELGYWGQGTLVTVSS
VL: QAVVTQESALTTSPGETVTLTCRSSTGAVTASNYANWVQEKPDHLFTGLIGSTNNRAPGVPARFSGSLIGDKAALTITGAQTEDEAIYFCALWYSDHFVFGGGTKLTVL
notes: Same variable regions as Antibody 23
binding result [3]: no binding (tested: 100 µg/ml C4BP (C4BP-Protein S complex))

Kd [1]: 19.5 nM
koff [1]: 0.00188 s⁻¹
kon [1]: 96400 M⁻¹ s⁻¹
Kd [2]: 13.8 nM
koff [2]: 0.0011 s⁻¹
kon [2]: 80000 M⁻¹ s⁻¹
B3: Antibody 41 (antibody, V domains shown)
VH: QVQLVQSGSEVKKPGASVKVSCKASGYTFTNYYIHWVRQAPGQGLEWMGIITPSGGTTSYAQKFQGRVTMTRDTSTNTVYMGLSSLRSEDTAMYYCARAGVQLDRRGWFDPWGQGTLVTVSS
VL: SYELTQPPSVSVSPGQTASITCSGDKLGDKYVFWYQQKPGQSPVLVIYQDSKRPSGIPERFSGSNSGNTATLTISGTQTMDEADYYCQAWDSSTVGFGGGTKLAVL
notes: Same variable regions as Antibody 42
binding result [3]: no binding (tested: 100 µg/ml C4BP (C4BP-Protein S complex))

From US20230083243A1 (VEGA THERAPEUTICS, published 2023)
